# Assay results published in the supplement of paper PMC9112550, “Optimization of the antimicrobial peptide Bac7 by deep mutational scanning” (BMC Biology, 2022).
# Tested on: Escherichia coli TOP10
# Test: shrunken log2 fold change of peptide-encoding DNA abundance (4.5 h post-induction vs induction); higher = less antimicrobial activity (less host growth inhibition)
# Details: time post-induction: 4.5 h; library: site-saturation at positions 5, 18, 19, 20
# 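Note: peptides expressed intracellularly from a pBAD plasmid library in pooled LB shake-flask culture, induced with 0.3% L-arabinose, DNA abundance read by NGS, three biological replicates, DESeq2 with apeglm shrinkage.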
row,Sequence,shrunken log2 fold change
1,RRIRPRPPRLPRPRPRPPAIPRP,0.325
2,RRIRIRPPRLPRPRPRPCFKPRP,-1.04
3,RRIRKRPPRLPRPRPRPDYYPRP,0.0521
4,RRIRSRPPRLPRPRPRPNEGPRP,-0.0691
5,RRIRFRPPRLPRPRPRPGSGPRP,0.161
6,RRIRKRPPRLPRPRPRPPQYPRP,0.277
7,RRIRTRPPRLPRPRPRPPELPRP,0.194
8,RRIRKRPPRLPRPRPRPIRVPRP,-0.0018
9,RRIRQRPPRLPRPRPRPTDGPRP,0.178
10,RRIRTRPPRLPRPRPRPRQTPRP,0.0617
11,RRIRCRPPRLPRPRPRPEFTPRP,-0.194
12,RRIRGRPPRLPRPRPRPFINPRP,-0.165
13,RRIRERPPRLPRPRPRPMRCPRP,0.0239
14,RRIRYRPPRLPRPRPRPSIMPRP,-1.54
15,RRIRFRPPRLPRPRPRPYHHPRP,-1.16
16,RRIRIRPPRLPRPRPRPKINPRP,-0.881
17,RRIRHRPPRLPRPRPRPMSYPRP,-0.0194
18,RRIRWRPPRLPRPRPRPCTHPRP,0.0298
19,RRIRGRPPRLPRPRPRPGQSPRP,-0.00151
20,RRIRHRPPRLPRPRPRPPWPPRP,0.504
21,RRIRERPPRLPRPRPRPLEMPRP,-0.216
22,RRIRRRPPRLPRPRPRPQFPPRP,0.133
23,RRIRFRPPRLPRPRPRPGTKPRP,0.478
24,RRIRWRPPRLPRPRPRPREFPRP,0.349
25,RRIRRRPPRLPRPRPRPSQPPRP,0.104

row,Sequence,shrunken log2 fold change
1,RRIRQRPPRLPRPRPRPMYCPRP,-0.526
2,RRIRYRPPRLPRPRPRPPVTPRP,-0.0969
3,RRIRVRPPRLPRPRPRPANFPRP,0.0908
4,RRIRIRPPRLPRPRPRPVSWPRP,-0.171
5,RRIRHRPPRLPRPRPRPWATPRP,-0.0619
6,RRIRLRPPRLPRPRPRPLIVPRP,-0.131
7,RRIRPRPPRLPRPRPRPHGIPRP,0.0828
8,RRIRARPPRLPRPRPRPWGAPRP,0.401
9,RRIRHRPPRLPRPRPRPVVRPRP,0.112
10,RRIRERPPRLPRPRPRPMINPRP,-0.0967
11,RRIRARPPRLPRPRPRPTMIPRP,0.00226
12,RRIRSRPPRLPRPRPRPTIVPRP,0.148
13,RRIRSRPPRLPRPRPRPYHLPRP,-0.415
14,RRIRWRPPRLPRPRPRPTWKPRP,0.261
15,RRIRNRPPRLPRPRPRPVDFPRP,-0.262
16,RRIRNRPPRLPRPRPRPRLDPRP,0.0403
17,RRIRMRPPRLPRPRPRPLLPPRP,0.354
18,RRIRVRPPRLPRPRPRPEEIPRP,-0.0172
19,RRIRCRPPRLPRPRPRPYGAPRP,-0.569
20,RRIRVRPPRLPRPRPRPEDKPRP,-0.00975
21,RRIRPRPPRLPRPRPRPEEAPRP,0.0763
22,RRIRKRPPRLPRPRPRPAEEPRP,0.906
23,RRIRERPPRLPRPRPRPHFEPRP,-0.211
24,RRIRARPPRLPRPRPRPHLIPRP,-0.0757
25,RRIRWRPPRLPRPRPRPLNDPRP,-0.281

row,Sequence,shrunken log2 fold change
1,RRIRWRPPRLPRPRPRPQTVPRP,-0.0322
2,RRIRWRPPRLPRPRPRPSEYPRP,-0.221
3,RRIRVRPPRLPRPRPRPRNIPRP,-0.0258
4,RRIRWRPPRLPRPRPRPWMPPRP,-0.127
5,RRIRSRPPRLPRPRPRPGPLPRP,0.292
6,RRIRSRPPRLPRPRPRPKIKPRP,-0.346
7,RRIRPRPPRLPRPRPRPQFIPRP,-0.653
8,RRIRGRPPRLPRPRPRPERIPRP,-0.0324
9,RRIRIRPPRLPRPRPRPEMPPRP,0.0112
10,RRIRHRPPRLPRPRPRPEFFPRP,0.0155
11,RRIRFRPPRLPRPRPRPPYLPRP,-0.465
12,RRIRLRPPRLPRPRPRPQYAPRP,-0.0369
13,RRIRFRPPRLPRPRPRPMEEPRP,0.279
14,RRIRERPPRLPRPRPRPDNSPRP,-0.981
15,RRIRLRPPRLPRPRPRPGGKPRP,-0.00333
16,RRIRGRPPRLPRPRPRPPRPPRP,1.08
17,RRIRRRPPRLPRPRPRPRLQPRP,0.349
18,RRIRVRPPRLPRPRPRPFSIPRP,-0.349
19,RRIRWRPPRLPRPRPRPQSSPRP,-0.276
20,RRIRMRPPRLPRPRPRPGWSPRP,0.548
21,RRIRERPPRLPRPRPRPEPMPRP,-0.0016
22,RRIRPRPPRLPRPRPRPENCPRP,0.151
23,RRIRWRPPRLPRPRPRPVLTPRP,0.147
24,RRIRPRPPRLPRPRPRPKSGPRP,0.356
25,RRIRKRPPRLPRPRPRPLQAPRP,1.34
